Experiments:
[1] = molecular target: T1, Human IL-1RAP, membrane-bound on human cells (HaCaT, dermal fibroblasts, neutrophils, PBMC, whole blood) (human, UniProt Q9NPH3 21-570); test: flow cytometry on normal human fibroblasts, nonlinear sigmoidal regression
T1 construct: Endogenous protein on cells
T1 sequence: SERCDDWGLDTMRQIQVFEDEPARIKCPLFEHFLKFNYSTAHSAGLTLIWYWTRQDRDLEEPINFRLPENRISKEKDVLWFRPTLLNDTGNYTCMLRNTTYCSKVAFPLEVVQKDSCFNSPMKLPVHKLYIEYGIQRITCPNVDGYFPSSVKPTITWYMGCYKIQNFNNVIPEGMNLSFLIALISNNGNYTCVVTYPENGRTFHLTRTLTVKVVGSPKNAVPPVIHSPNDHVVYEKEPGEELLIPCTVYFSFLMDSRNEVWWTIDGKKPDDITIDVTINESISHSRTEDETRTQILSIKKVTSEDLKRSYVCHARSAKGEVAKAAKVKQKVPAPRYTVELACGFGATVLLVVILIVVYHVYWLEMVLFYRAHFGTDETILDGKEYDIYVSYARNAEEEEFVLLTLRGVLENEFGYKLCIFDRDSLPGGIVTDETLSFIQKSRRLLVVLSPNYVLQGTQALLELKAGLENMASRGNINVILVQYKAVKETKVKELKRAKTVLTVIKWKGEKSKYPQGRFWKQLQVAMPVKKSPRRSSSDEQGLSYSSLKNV
Description: Bound antibodies were detected with a monoclonal anti-human IgG PE-Cyanine7 secondary antibody. The graphs show the nonlinear sigmoidal regression binding curves (Relative Geometric Mean Fluorescence Intensity) for each cell lines. Each data point is a measurement for a given cell line. Multiple independent experiments were performed across several donors (HaCaT and HaCaT IL-1RAP KO: 4 and 3 independent experiments; Human Dermal Fibroblasts: 2 independent experiments—total of 5 donors; Human Neutrophil: 2 experiments—total of 6 donors; Cyno Dermal Fibroblasts: 2 independent experiment—total of 4 donors).
In brief, cells were harvested, counted, and plated at 50,000 cells/well in a 96-well round-bottom plate. The plate was centrifuged at 350 g for 3 minutes and the cells were resuspended in 50 μl of FACS® buffer (PBS (1×)+2.5% FCS+2 mM EDTA+0.05% NaN₃) containing various concentrations (ranging from 50 to 0.00003 μg/ml) of either anti-human IL-1RAP_candidate_1 or Isotype control_5 antibodies. […] The cells were gated based on size on FSC vs SSC and analyzed for PE-Cyanine7-geometric mean (geomean) fluorescence intensity using FLOWJO® software. Finally, relative geomean fluorescence intensity was calculated by subtracting fluorescence of anti-human IL-1RAP_candidate_1 per fluorescence of Isotype control_5. […]

[2] = molecular target: T2, Mouse IL-1RAP, membrane-bound on NIH-3T3 cells (mouse, UniProt Q61730 21-570); test: cell-based or functional assay
T2 sequence (looked up): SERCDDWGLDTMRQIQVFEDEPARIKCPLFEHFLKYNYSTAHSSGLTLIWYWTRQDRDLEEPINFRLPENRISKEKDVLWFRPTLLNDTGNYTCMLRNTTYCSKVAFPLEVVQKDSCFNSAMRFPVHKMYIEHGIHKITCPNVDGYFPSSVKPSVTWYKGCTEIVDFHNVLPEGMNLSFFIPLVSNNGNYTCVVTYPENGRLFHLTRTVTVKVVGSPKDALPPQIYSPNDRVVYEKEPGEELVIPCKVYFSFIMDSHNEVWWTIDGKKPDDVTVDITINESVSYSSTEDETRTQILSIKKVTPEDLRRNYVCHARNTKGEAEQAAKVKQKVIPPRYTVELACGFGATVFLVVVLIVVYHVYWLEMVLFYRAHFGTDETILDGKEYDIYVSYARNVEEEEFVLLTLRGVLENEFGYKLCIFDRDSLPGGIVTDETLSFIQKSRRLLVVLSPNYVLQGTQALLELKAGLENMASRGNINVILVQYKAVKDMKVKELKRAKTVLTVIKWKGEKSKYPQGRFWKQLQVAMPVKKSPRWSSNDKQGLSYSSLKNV

B1: Anti-IL-1RAP-C8-RecC-ES-IgG1LALA (antibody, V domains shown)
VH: QVQLVQSGAEVKKPGSSVKVSCKASGSPAEPYAIQWVRQAPGQGLEWMGYIIPSLGGYDYAQKFQGRVTITADESTSTAYMELSSLRSEDTAVYYCARGQTLYESGRQFDIWGQGTLVTVSS
VL: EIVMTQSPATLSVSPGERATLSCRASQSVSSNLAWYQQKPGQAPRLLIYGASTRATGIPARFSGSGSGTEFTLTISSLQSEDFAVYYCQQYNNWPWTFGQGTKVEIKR
notes: also called ISB 880-C8-recC-ES
[1]
  Kd: 3.1 nM

B2: Anti-IL-1RAP-C3-A3 mmIgG2a LALA (antibody, V domains shown)
VH: EVQLLESGGGLVQPGGSLRLSCAASGFIFSHYGMSWVRQAPGKGLEWVSAISYDGEGTLYADSVKGRFTISRDNSKNTLYLQMNSLRAEDTAVYYCARFRYYTAFDYWGQGTLVTVSS
VL: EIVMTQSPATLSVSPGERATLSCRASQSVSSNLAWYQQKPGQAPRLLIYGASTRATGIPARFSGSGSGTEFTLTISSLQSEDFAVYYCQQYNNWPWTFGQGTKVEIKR
notes: also called anti-IL-1RAP-C3-A3 mouse IgG2a LALA
[2]
  hIL-33-stimulated NIH-3T3, mIL-6 release, EC50 of inhibition: 1.02 nM
  mIL-1b-stimulated NIH-3T3, mIL-6 release, EC50 of inhibition: 3.14 nM
  mIL-36s-stimulated NIH-3T3, mCXCL-1 release, EC50 of inhibition: 1.68 nM
